How the values were obtained:
[1] = biological target: Cy5 N-terminal-labeled WWP2 (human) (UniProt O00308); assay: MST; 10 nM N-terminal Cy5-labeled WWP2, NDP52 (up to 48 uM) or OPTN (up to 60 uM) in two-fold serial dilution; 25 mM Hepes pH 7.8, 250 mM NaCl, 1 mM TCEP, 0.5 mg/ml BSA, 0.05% Tween-20; room temperature; apparent KD, quadratic model
PTEN (Homo sapiens) = PTEN (Homo sapiens) (UniProt P60484); settings: cited from earlier work
PTEN (Homo sapiens), sequence (P60484 2-403): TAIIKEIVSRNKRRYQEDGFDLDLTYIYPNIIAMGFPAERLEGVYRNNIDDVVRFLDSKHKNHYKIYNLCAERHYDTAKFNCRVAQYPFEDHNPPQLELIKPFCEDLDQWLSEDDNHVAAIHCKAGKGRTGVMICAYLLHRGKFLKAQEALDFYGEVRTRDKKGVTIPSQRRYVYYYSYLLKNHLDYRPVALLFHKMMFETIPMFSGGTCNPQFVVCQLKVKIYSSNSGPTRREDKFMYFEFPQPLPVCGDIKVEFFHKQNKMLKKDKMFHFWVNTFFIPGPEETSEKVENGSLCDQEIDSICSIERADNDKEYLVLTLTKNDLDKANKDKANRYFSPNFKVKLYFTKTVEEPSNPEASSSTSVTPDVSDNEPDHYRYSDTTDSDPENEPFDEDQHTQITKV

WWP2, sequence (O00308 whole entry): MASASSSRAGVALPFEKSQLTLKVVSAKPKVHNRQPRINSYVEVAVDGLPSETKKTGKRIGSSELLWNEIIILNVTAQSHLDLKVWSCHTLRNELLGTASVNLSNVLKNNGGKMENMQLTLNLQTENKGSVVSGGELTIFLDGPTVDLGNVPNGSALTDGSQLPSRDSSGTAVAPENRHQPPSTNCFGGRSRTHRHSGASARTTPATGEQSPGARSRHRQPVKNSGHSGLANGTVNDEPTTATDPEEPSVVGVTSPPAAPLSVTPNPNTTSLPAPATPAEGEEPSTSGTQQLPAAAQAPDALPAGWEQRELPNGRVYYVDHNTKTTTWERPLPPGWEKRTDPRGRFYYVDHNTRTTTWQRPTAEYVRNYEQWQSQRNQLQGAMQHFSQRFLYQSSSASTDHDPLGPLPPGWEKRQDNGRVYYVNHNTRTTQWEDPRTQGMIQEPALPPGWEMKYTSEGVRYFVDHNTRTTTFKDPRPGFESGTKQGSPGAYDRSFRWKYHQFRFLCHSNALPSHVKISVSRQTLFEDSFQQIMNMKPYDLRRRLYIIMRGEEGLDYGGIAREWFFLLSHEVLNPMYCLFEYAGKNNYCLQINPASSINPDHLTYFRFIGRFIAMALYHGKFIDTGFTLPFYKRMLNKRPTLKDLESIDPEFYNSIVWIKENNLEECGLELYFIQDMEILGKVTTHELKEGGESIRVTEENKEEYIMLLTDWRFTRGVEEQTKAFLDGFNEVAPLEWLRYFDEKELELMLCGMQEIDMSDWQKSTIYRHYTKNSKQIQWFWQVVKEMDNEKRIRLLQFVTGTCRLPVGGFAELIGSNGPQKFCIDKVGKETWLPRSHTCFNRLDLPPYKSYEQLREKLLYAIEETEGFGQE
Optineurin, sequence (Q96CV9 whole entry): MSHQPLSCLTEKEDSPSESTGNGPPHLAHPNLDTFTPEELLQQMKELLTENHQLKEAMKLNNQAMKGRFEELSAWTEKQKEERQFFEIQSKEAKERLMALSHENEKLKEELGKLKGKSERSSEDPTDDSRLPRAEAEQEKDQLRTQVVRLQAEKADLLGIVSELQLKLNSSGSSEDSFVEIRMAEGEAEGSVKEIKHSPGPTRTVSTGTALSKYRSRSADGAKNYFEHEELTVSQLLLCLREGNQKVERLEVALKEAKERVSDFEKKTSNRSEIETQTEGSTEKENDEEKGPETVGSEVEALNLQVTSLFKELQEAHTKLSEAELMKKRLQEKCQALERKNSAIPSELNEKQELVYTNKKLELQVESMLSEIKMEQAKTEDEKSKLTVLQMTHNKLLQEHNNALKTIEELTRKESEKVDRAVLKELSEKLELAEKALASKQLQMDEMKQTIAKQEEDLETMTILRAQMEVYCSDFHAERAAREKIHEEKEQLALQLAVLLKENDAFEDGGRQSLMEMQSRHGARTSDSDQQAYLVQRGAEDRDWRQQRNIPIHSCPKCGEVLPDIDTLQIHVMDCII

Kd [1] [µM]	Substance	Kd (PTEN (Homo sapiens)) [µM]
39	Optineurin (from UniProt Q96CV9 1-577) (natural protein)	–
–	WWP2 (from UniProt O00308)	20

Source: PMC9034101
